Measured values published in a protein production outcome set (Wang et al. 2014).

Test: label from the status in PepcDB records

MDHKDLAQRILRDIGGEDNIVAAAHCATRLRLVLKDTKDVDRQSLDDDPDLKGTFETGGMFQIIVGPGDVDHVFKELDDATSKDIAVSTEQLKDVVANNANWFSRAVKVLADIFVPLIPILVGGGLLMAINNVLVAQDLFGPQSLVEMFPQISGVAEMINLMASAPFAFLPVLVGFTATKRFGGNEFLGAGIGMAMVFPSLVNGYDVAATMAAGEMPMWSLFGLDVAQAGYQGTVLPVLVVSWILATIEKFLHKRLKGTADFLITPVLTLLLTGFLTFIAIGPAMRWVGDVLAHGLQGLYDFGGPVGGLLFGLVYSPIVITGLHQSFPPIELELFNQGGSFIFATASMANIAQGAACLAVFFLAKSEKLKGLAGASGVSAVLGITEPAIFGVNLRLRWPFFIGIGTAAIGGALIALFNIKAVALGAAGFLGVVSIDAPDMVMFLVCAVVTFFIAFGAAIAYGLYLVRRNGSIDPDATAAPVPAGTTKAEAEAPAEFSNDSTIIQAPLTGEAIALSSVSDAMFASGKLGSGVAIVPTKGQLVSPVSGKIVVAFPSGHAFAVRTKAEDGSNVDILMHIGFDTVNLNGTHFNPLKKQGDEVKAGELLCEFDIDAIKAAGYEVTTPIVVSNYKKTGPVNTYGLGEIEAGANLLNVAKKEAVPATP
protein production: failed

MFLFMVSRNFSRRDFLKMTAGGVVLASAMPTLSWASLPDEPRVLAMNNLNTGELLETCYFDGNRYVGKELQRLNEFCRDHRRNEVHPMDKRLFDQISQIQKLIGTESEVIVISGYRSPVTNASLRSGSTGVAKKSLHMEGKAIDFRLDGVKLSTVRDAAISLKAGGVGYYPGSNFVHIDTGAVRSW
protein production: failed

MTSYPQQPQQTEQYGVQAGEPPLWAPYYGAPIGAAIRRFFKKYTAFSGRASRSEYWWVALALGVIGIVLQILTGILGAAGSTTTSSGTVPGPGAVVGLILIFVFYLAVLIPSIALLVRRLHDGNFSGWLALLGLIPFVGGLAILVFALLPSNPAGQRFDQPTA
protein production: failed

MVQLDQRVRFKSATSIISIEMWERFSFYGMQALLVYYLYFDVAAGGLGLDQTQATGLVGVYGALLYLCCWAGGWVSDRVLGAEKTLLGGAISVTIGHLVLAGLGGKIGLAIGLGCIAIGSGFVKTAAITVLGSRHGEQEGDAKADPAFQLFYLGINVGALLGPLLTGWLSSRYSFEMGFGAAAVLMIGGLGIYAALRKPMLQSFPLEVKKALLRAQNPAEKHVISTAFAAVAVLCGVLLYLLLTETVSADQLAGALLLVTIGAALWLIIQPLRHPQVSSEEKRKVLAFIPIFVCSTAFWAVQAQTYGVLAVYSQERVDRMVGDFEIPAAWSQSLNPFFILALSIPISLWFMRGSRAPRVKIGISIGVIIAGSGLLVLIPFVGMPLAPVWVLPLSVFLISLGELFIGPGGMAATAHHAPRIFATRFSALYFLTLAIGMSIAGNVSKFYDPTNHTSELRYFAVFGISIIVIGVGSLMVAKKVG
protein production: failed

MSTDSIVKASNWRLVEVGRVVLIKKGQSAGKLAAIVEIIDQKKVLIDGPKAGVPRQAINLGQVVLTPLTFALPRGARTATVSKKWAAAAVCEKWAASSWAKKIAQRERRAALTDFERFQVMVLRKQKRYTVKKALAKA
protein production: failed

MSLNERILLVDDDYSLLNTLKRNLSFDFEVTTCESGPEALACIKKSDPFSVIMVDMRMPGMEGTEVIQKARLISPNSVYLMLTGNQDLTTAMEAVNEGQVFRFLNKPCQMSDIKAAINAGIKQYDLVTEGHHHHHH
protein production: not failed

AIATSALENYINRTVAVITSDGRMIVGTLKGFDQTINLILDESHERVFSSSQGVEQVVLGLYIVRGDNVAVIGEIDEETDSALDLGNIRAEPLNSVAH
protein production: not failed

MTIKSDKWIRRMAQEHGMIEPFVERQVRGADDSRVISYGVSSYGYDVRCAAEFKVFTNIHSAVVDPKNFDEKSFVDINSDVCIIPPNSFALARTVEYFRIPRDVLTICLGKSTYARCGIIVNVTPLEPEWEGHVTLEFSNTTNLPAKIYANEGVAQMLFLQSDEACEVSYKDRGGKYQGQR
protein production: not failed

MGLRMSESAKPYFAMVCLQFGYAGMNLVTKTVLDRGMSHYVLVAYRNAFATAAIAPFALLSERKVRSKMTFPIFMRIFLLALLGPVIDQNLYYIGLKLTSPTFSSAVSNIVPAITIILATLFRMEKVEMRKVRCLVKVMGTLVTVVGSILMIFYKGPFINFFRSHLTAASSPPTADYLKAAVFLLLASLSWASFFVLQAATLKKYSAHLSMSTMVCFMGTLQSLALAFVMEHNPSALNIGFDMNLLASAYAGIMSSSIAYYVQGLMMQRKGPVFVTAFNPLIVVIVSIMSFFVLGQGIYLGGYVNNNRVIGVVVLMVGVYAVLWGKHVDDDGEETRHEDNVVAVKCCSGNNGLTIMPKIDEADEEDVETGKATSEKESSVPEVVVVVFCSENVHSVSRPN
protein production: failed
